{
  "source": "paper PMC6853987",
  "about": "“ClpP protease activation results from the reorganization of the electrostatic interaction networks at the entrance pores” (Communications Biology, 2019)",
  "proteins": {"B1": {"name": "Escherichia coli ClpP (EcClpP), wild type (enzyme)", "chain": "not shown", "notes": "ClpP protease proteolytic subunit, E. coli; Crystallised with the small molecule ACP1-06; An unexplained density extends from S111 in the structure (possible covalent modification, not identified); also called E. coli ClpP; caseinolytic protease P; copies: 14"}, "B2": {"name": "Neisseria meningitidis ClpP (NmClpP), wild type (enzyme)", "chain": "not shown", "notes": "ClpP, N. meningitidis MC58; expressed full length with N-terminal His6 tag and TEV site; also called apo-NmClpP; WT NmClpP; not shown: His6, N-terminal, cleaved; copies: 14"}},
  "key": {"[1]": {"molecular_target": "the molecule itself", "experiment": "crystal structure; EcClpP 10 mg/mL in 10 mM HEPES pH 7.5, 200 mM NaCl with 5 mM ACP1-06; well 51-63% MPD, 0.1 M sodium acetate pH 5.0, room temperature; self-association (tetradecamer)"}, "[2]": {"molecular_target": "the molecule itself", "experiment": "crystal structure; apo-NmClpP 5 mg/mL in 25 mM TrisHCl pH 7.5, 100 mM KCl; well 0.2 M potassium thiocyanate, 40% MPD, room temperature; self-association (tetradecamer)"}},
  "data": [
    {"protein": "B1", "values": [
      {"measurement": "stoichiometry N", "setting": "[1]", "result": 14}
    ]},
    {"protein": "B2", "values": [
      {"measurement": "stoichiometry N", "setting": "[2]", "result": 14}
    ]}
  ]
}
